Measured values taken from US20220089765A1, “CD31 COMPETITORS AND USES THEREOF” (ENCEFA, priority 2019, published 2022).
Positions count from the first letter of the chain named.

B1: Clone C05: anti-human CD38 antibody, HCVR SEQ ID NO: 34 and LCVR SEQ ID NO: 40 (antibody, V domains shown)
VH: EVQLVESGGSLVKPGGSLRLSCAASGFTFSNNYMNWVRQAPGKGLEWISSISGSSRYISYADFVKGRFTISRDNAKNSLYLQMNSLRAEDTAVYYCVRSSSSYYYSGNGMDVWGRGTLVTVSS
VL: QSVLTQPASVSGSPGQSITISCAGTSSDVGGSSYVSWYQQHPGKAPKLMIYYDSYRPSGVSNRFSGSKSGNTASLTISGLQAEDEADYYCSSNTYYSTRVFGGGTKL
modifications: HCVR C05; LCVR C05/C06
B2: Clone D06: anti-human CD38 antibody, HCVR SEQ ID NO: 36 and LCVR SEQ ID NO: 41 (antibody, V domains shown)
VH: EVQLVESGGSLVKPGGSLRLSCAASGFTFSNYDMNWVRQAPGKGLEWISYIYGSSRDISYADFVKGRFTISRDNAKNSLYLQMNSLRAEDTAVYYCVRSSGYYFGYGMDVWGRGTLVTVSS
VL: B1 VL with S33Y, Y52S, Y95A
modifications: HCVR D06; LCVR D06
B3: Clone D10: anti-human CD38 antibody, HCVR SEQ ID NO: 38 and LCVR SEQ ID NO: 42 (antibody, V domains shown)
VH: B1 VH with N32S, Y33A, Y57D, S59Y
VL: B1 VL with S32N
modifications: HCVR D10; LCVR D07/D10
B4: Clone C06: anti-human CD38 antibody, HCVR SEQ ID NO: 35 and LCVR SEQ ID NO: 40 (antibody, V domains shown)
VH: B1 VH with N32S, Y33A, Y57N, S59Y, S101Y, Y103S, Y105G
VL: B1 VL
modifications: HCVR C06; LCVR C05/C06
B5: Clone D07: anti-human CD38 antibody, HCVR SEQ ID NO: 37 and LCVR SEQ ID NO: 42 (antibody, V domains shown)
VH: B1 VH with N32S, Y33A, S50Y, Y57D, N108S
VL: B1 VL with S32N
modifications: HCVR D07; LCVR D07/D10
B6: ABBV-8E12: monoclonal antibody whose brain/plasma ratio in humans is cited (antibody, chains of the INN, looked up, V domains shown)
VH: EVKVVESGGGLVQPGGSMKLSCVVSGFTFSNYWVNWVRQAPGKGLEWVAQIRLKSDNYATHYEESVKGRFTISRDDSKSSVYLQMNNLRAEDSGIYYCTNWEDYWGQGTTVTVSS
VL: DIVLTQSPDSLAVSLGERATISCRASQSVSTSRYSYIHWYQQKPGQPPKLLIKYASNLESGVPSRFSGSGSGTDFTLNIHPLEPEDFATYYCHHSWEIPLTFGQGTKLEIK

Legend:
[1] = molecular target: CD38 (on cells of midbrain cultures from Wistar rat embryos) (UniProt Q64244); assay: cell-based or functional assay
UniProt Q64244, sequence (Q64244 whole entry): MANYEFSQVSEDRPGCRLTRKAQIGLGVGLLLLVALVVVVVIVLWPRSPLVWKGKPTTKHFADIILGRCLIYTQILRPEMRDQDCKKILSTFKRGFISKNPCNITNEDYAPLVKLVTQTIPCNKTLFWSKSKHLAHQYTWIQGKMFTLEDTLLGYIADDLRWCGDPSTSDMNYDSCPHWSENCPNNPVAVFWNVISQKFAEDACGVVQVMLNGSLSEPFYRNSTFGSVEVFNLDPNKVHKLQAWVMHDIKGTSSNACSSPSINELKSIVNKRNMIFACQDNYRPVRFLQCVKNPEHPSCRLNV

[2] = system: dopaminergic neurons of the right substantia nigra pars compacta; assay: 6-OHDA mouse model, number of DA (TH+) neurons; type: in vivo, mice
Protocol: We aimed at determining whether B08 or D06 anti-CD38 antibodies were neuroprotective in vivo against neurodegeneration induced by oxidative stress. Mouse were administered with 6-hydroxydopamine (6-OHDA) in the right striatum. Since 6-OHDA is an analogue of dopamine, it is transported in dopaminergic neurons through the dopamine transporter, resulting in a specific degeneration and loss of dopaminergic neurons of the right substantia nigra pars compacta. It has been extensively used as a test system for novel symptomatic agents and for assessment of neuroprotective and neurorepair strategies (Galindo et al., 2014. In Kostrzewa (Ed.), Handbook of neurotoxicity (1st Ed., pp. 639-651). New York: Springer-Verlag). Since 6-OHDA is injected unilaterally in the right striatum, left striatum remains unaffected and each mouse is its own control.
Two in vivo mouse models were used: the 6-OHDA mouse model and the MPTP mouse model. For the 6-OHDA mouse model, the intoxication protocol was based on the unilateral stereotaxic intrastriatal injection of 6-OHDA in the right striatum. Intracerebral or intravenous injections of treatments were made either the day before the surgical stereotaxic procedure, concomitantly with 6-OHDA during the surgical stereotaxic procedure, or two days after 6-OHDA injection. Animals were sacrificed 8 days after the surgical stereotaxic procedure.
For unilateral 6-OHDA mouse model, animals were anesthetized using Chloral hydrate (400 mg/kg, i.p.) and placed into a stereotactic frame adapted to mice. The injection was performed using a Hamilton syringe at the following coordinates: AP: […], ML: […], DV: […] (corresponding to the atlas of Franklin and Paxinos, 1997). A total volume of 2.5 μL containing or not 5 μg of 6-OHDA diluted in PBS in the presence or the absence of test treatments was injected. The needle was left in place for 10 min after the injection before retraction.
Mice were sacrificed by cervical dislocation, and beheaded to collect brain and blood samples. The brain was fixed in a paraformaldehyde solution (4%) during 1 day before being soaked in sucrose (30%) during 2 days and then froze at −80° C. for further analysis.
Each brain was sliced using a freezing microtome at −30° C. The thickness of each slice was 20 μm. The slicing was done around the substantia nigra (80 slices from slice 51 to 63 according to Allen Mouse Brain).
Slices were then washed out in PBS and incubated with anti-Tyrosine Hydroxylase to stain dopaminergic neurons (Abcam®) during 2 days, at 4° C., with agitation. Slices were incubated with corresponding secondary antibody in the presence of DAPI (Sigma Aldrich®) to stain cell's nuclei during 2 hours at room temperature, and mounted on gelatin-coated slides.
The slices were imaged using a Nikon TE2000 U equipped with a Hamamatsu ORCE-ER camera or with a Zeiss Axio Vert.A1 equipped with an axiocam 503 mono camera. Image analysis was done using Image J software or Zen (Zeiss®).

[3] = system: human peripheral blood mononuclear cells (PBMCs); assay: IL-10 release from human PBMCs in vitro (ELISA); type: cell-based; details: PBMCs from 3 healthy donors; 10 μg/ml; LPS 500 ng/mL and interferon-γ 1B 100 ng/mL; 24 hours
Protocol: 3 healthy volunteers (Donor 1: Donor 2: Donor 3) served as blood donors. Venous blood (5 mL) was collected into heparinized tubes and immediately processed. Briefly, blood was diluted 1/1 in pre-warmed RPMI 1640 medium. PBMCs were isolated using gradient centrifugation in Ficoll solution (Sigma; 300×g, 30 min). Isolated PBMCs were re-suspended in 1 volume of pre-warmed RPMI 1640 medium and centrifuged again (300×g, 30 min). PBMCs were re-suspended in RPMI 1640 medium supplemented with 10% human serum (Sigma-Aldrich) at a concentration of 10^7 cells per mL. Cells were seeded in 96 well microplate (100 μL per well). Test compounds (10 μg/ml), LPS (500 ng/mL) and interferon-γ 1B (100 ng/mL) were added to PBMCs culture immediately after plating. After 24 hours, cell culture supernatants were collected and frozen at −80° C. for further processing.
IL-10 levels in cell culture supernatants were assayed using an ELISA human IL-10 kit (Ozyme®) according to the indications for use specified by the manufacturer.

[4] = system: midbrain dopaminergic (TH+) neurons; assay: MPP+ intoxication model in midbrain cell cultures, survival of DA (TH+) neurons; type: cell-based, Wistar rat; details: for neuroprotective effect against MPP+-induced DA cell death, compared with reference clone HB7: 3 μM MPP+ between 5 and 7 DIV, each clone and HB7 0.5 μg/mL; for neuroprotective effect in the presence of the lysosomal exocytosis inhibitor vacuolin-1: 3 μM MPP+, test substance 1 μg/mL, vacuolin-1 10 μM
Protocol: For this purpose, spontaneously occurring DA cell death was prevented by a treatment combining depolarizing concentrations of K^+ (30 mM) and MK801 (5 μM), a glutamate receptor antagonist used to prevent unwanted excitotoxic insult. The cultures were then exposed to 3 μM MPP between 5 and 7 days in vitro (DIV) to achieve a loss of approximately 50% of DA neurons.
Animals were treated in accordance with the Guide for the Care and Use of Laboratory Animals (National Research Council, 1996), European Directive 86/609, and the guidelines of the local institutional animal care and use committee. Cultures were prepared from the ventral mesencephalon of gestational age 15.5 Wistar rat embryos (Janvier Breeding Center, Le Genest St Isle, France). Dissociated cells in suspension obtained by mechanical trituration of midbrain tissue pieces were seeded at a density of 1.2-1.5×10^5 cells/cm^2 onto tissue culture supports precoated with 1 mg/mL polyethylenimine diluted in borate buffer pH 8.3 as described (Michel et al., 1997. J Neurochem. 69(4):1499-507). The cultures were then maintained in N5 medium supplemented with 5 mM glucose, 5% horse serum, and 0.5% fetal calf serum, except for the first 3 DIV, when the concentration of fetal calf serum was 2.5% to favor initial maturation of the cultures (Guerreiro et al., 2008. Mol Pharmacol. 74(4):980-9). They were fed daily by replacing 70% of the medium. Routinely, mesencephalic cultures were established on Nunc 24-well culture plates (Thermofischer Scientific, Rochester, N.Y.). Note that these cultures contain tyrosine hydroxylase (TH)^+ neurons that were exclusively dopaminergic (Traver et al., 2006. Mol Pharmacol. 70(1):30-40). TH^+ neurons represented approximately 1-2% of the total number of neuronal cells present in these cultures. The evaluation of the survival of DA neurons was performed by counting cells immunopositive for TH as described (Toulorge et al., 2011. Faseb J. 25(8):2563-73).
Treatments with MPP were performed in cultures where the spontaneous death process was prevented by long-term exposure to depolarizing concentrations of K^+ (30 mM), in the presence of the glutamate receptor antagonist MK801 (5 μM) to prevent unwanted excitotoxic insults as described previously (Douhou et al., 2001. J Neurochem. 78(1): 163-74). Treatments with MPP and potential neuroprotective molecules were carried out between 5 and 7 DIV.
The cultures were fixed for 12 min using 4% formaldehyde in Dulbecco's phosphate-buffered saline (PBS), then washed twice with PBS before an incubation step at 4° C. for 24 h with the following antibodies. A monoclonal anti-TH antibody diluted 1/5000 (ImmunoStar, Inc., Hudson, Wis.) was used to assess the survival of DA neurons. Antibody was diluted in PBS containing 0.2% Triton X-100. Detection of the primary antibodies was performed with an Alexa Fluor-488 conjugate of an anti-mouse IgG antibody.

[5] = in humans; cited from earlier work

| Molecule | IL-10 release [3] | neuroprotective effect against MPP+-induced DA cell death, compared with reference clone HB7 [4] | neuroprotective effect in the presence of the lysosomal exocytosis inhibitor vacuolin-1 [4] | further results |
| --- | --- | --- | --- | --- |
| murine sCD31 (from UniProt Q08481 18-585) (ligand) |  |  |  | EC50 of prevention of MPP+-induced DA cell loss (TH+ cell survival in midbrain cultures) [1]: 36 ng/mL |
| Daratumumab: anti-CD38 antibody Daratumumab [reference compound] |  |  |  | neuroprotective effect in 6-OHDA model ([2]; 15 mg/kg iv one day before 6-OHDA injection): failed to demonstrate neuroprotective activity |
| B1 | statistically significantly increased | stronger neuroprotective effect | antagonized |  |
| B2 | statistically significantly increased | stronger neuroprotective effect | antagonized | protection of dopaminergic neurons of the right substantia nigra pars compacta ([2]; 0.1 mg/kg injected intracerebrally concomitantly with 6-OHDA): statistically significantly protected |
| B3 |  | stronger neuroprotective effect |  |  |
| B4 |  |  | antagonized |  |
| B5 | statistically significantly increased |  | antagonized |  |
| B6 |  |  |  | Brain/plasma ratio [5]: 0.385% |
